Results: IntAct's records for PubMed 20890290

B1: Protein dom34 (Schizosaccharomyces pombe (strain ATCC 38366 / 972)), Q9USL5 (parent)
chain: MKLIQKNIEKNGSGWITMCPEEPEDMWHLYNILQVGDQLKASTVRRVVKVGATGSTSGSRVVMKLRILVENMDFDTKAAQLHIKGRTTEYHPEVKMGSYHTLDLELHRNFTLYKNEWDAFALDRVDAACNPSRNAEIGAVVLDEGLANICLITDYMTILRQRIDQVIPRKRRGDSSAYQKGLDKFYDSVFQSINSEFDFDKLKVVILASPGFVARGLYDYIFSMAVKLDLKQIVKSKNKFVILHSSTGHIHSLNEILKDPAVESKLADTKYVQEIRVLNKFYDVMNEDDRKAWYGPNHVLKAFELGAIGELLISDSLFRSSDIATRKKWVSLVEGVKEINCPVYIFSSLHESGKQLDLLSGIAAILTYPVDEEDISEDEEDEESQNFEHS
partner: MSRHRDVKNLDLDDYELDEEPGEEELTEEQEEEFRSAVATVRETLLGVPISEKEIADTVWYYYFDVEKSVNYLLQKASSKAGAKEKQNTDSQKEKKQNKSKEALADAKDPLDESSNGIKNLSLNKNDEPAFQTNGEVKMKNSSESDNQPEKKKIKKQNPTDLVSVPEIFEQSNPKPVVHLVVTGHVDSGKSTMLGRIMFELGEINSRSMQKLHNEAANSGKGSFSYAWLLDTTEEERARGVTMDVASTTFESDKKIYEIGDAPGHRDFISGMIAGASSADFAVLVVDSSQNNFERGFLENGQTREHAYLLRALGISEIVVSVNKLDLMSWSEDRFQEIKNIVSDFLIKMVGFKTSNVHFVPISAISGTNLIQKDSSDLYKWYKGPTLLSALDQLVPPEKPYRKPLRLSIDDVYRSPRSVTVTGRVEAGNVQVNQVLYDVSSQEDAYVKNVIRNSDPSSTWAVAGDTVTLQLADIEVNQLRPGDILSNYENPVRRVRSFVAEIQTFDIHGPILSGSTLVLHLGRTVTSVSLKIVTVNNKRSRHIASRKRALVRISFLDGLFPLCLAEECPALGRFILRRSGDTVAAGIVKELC
B2: Elongation factor 1 alpha-like protein (Schizosaccharomyces pombe (strain ATCC 38366 / 972)), O74774 (parent)
chain: B1 partner
partner: B1 chain

Variants of: B1
Conditions: with hbs1_schpo hbs1, O74774

effect of a mutation on the interaction | Variant
decreasing interaction | MKLIQKNIEKNGSGWITMCPEEPEDMWHLYNILQVGDQLKASTVRRVVKVGATGSTSGSRVVMKLRILVENMDFDTKAAQLHIKGRTTEYHPEVKMGSYHTLDLELHRNFTLYKNEWDAFALDRVDAACNPSRNAEIGAVVLDEGLANICLITDYMTILRQAIDQVIPRKRRGDSSAYQKGLDKFYDSVFQSINSEFDFDKLKVVILASPGFVARGLYDYIFSMAVKLDLKQIVKSKNKFVILHSSTGHIHSLNEILKDPAVESKLADTKYVQEIRVLNKFYDVMNEDDRKAWYGPNHVLKAFELGAIGELLISDSLFRSSDIATRKKWVSLVEGVKEINCPVYIFSSLHESGKQLDLLSGIAAILTYPVDEEDISEDEEDEESQNFEHS [R162A]
decreasing interaction | MKLIQKNIEKNGSGWITMCPEEPEDMWHLYNILQVGDQLKASTVRRVVKVGATGSTSGSRVVMKLRILVENMDFDTKAAQLHIKGRTTEYHPEVKMGSYHTLDLELHRNFTLYKNEWDAFALDRVDAACNPSRNAEIGAVVLDEGLANICLITDYMTILRQRIAQVIPRKRRGDSSAYQKGLDKFYDSVFQSINSEFDFDKLKVVILASPGFVARGLYDYIFSMAVKLDLKQIVKSKNKFVILHSSTGHIHSLNEILKDPAVESKLADTKYVQEIRVLNKFYDVMNEDDRKAWYGPNHVLKAFELGAIGELLISDSLFRSSDIATRKKWVSLVEGVKEINCPVYIFSSLHESGKQLDLLSGIAAILTYPVDEEDISEDEEDEESQNFEHS [D164A]

Variants of: B2
Conditions: with dom34_schpo dom34, Q9USL5

effect of a mutation on the interaction | Variant
decreasing interaction | MSRHRDVKNLDLDDYELDEEPGEEELTEEQEEEFRSAVATVRETLLGVPISEKEIADTVWYYYFDVEKSVNYLLQKASSKAGAKEKQNTDSQKEKKQNKSKEALADAKDPLDESSNGIKNLSLNKNDEPAFQTNGEVKMKNSSESDNQPEKKKIKKQNPTDLVSVPEIFEQSNPKPVVHLVVTGHVDSGKSTMLGRIMFELGEINSRSMQKLHNEAANSGKGSFSYAWLLDTTEEERARGVTMDVASTTFESDKKIYEIGDAPGHRDFISGMIAGASSADFAVLVVDSSQNNFERGFLENGQTREHAYLLRALGISEIVVSVNKLDLMSWSEDRFQEIKNIVSDFLIKMVGFKTSNVHFVPISAISGTNLIQKDSSDLYKWYKGPTLLSALDQLVPPEKPYRKPLRLSIDDVYRSPRSVTVTGRVEAGNVQVNQVLYDVSSQEDAYVKNVIRNSDPSSTWAVAGDTVTLQLADIEVNQLRPGDILSNYENPVRRVRSFVAEIQTFDIHGPILSGSTLVLHLGRTVTSVSLKIVTVNNKRSAHIASRKRALVRISFLDGLFPLCLAEECPALGRFILRRSGDTVAAGIVKELC [R541A]
decreasing interaction | MSRHRDVKNLDLDDYELDEEPGEEELTEEQEEEFRSAVATVRETLLGVPISEKEIADTVWYYYFDVEKSVNYLLQKASSKAGAKEKQNTDSQKEKKQNKSKEALADAKDPLDESSNGIKNLSLNKNDEPAFQTNGEVKMKNSSESDNQPEKKKIKKQNPTDLVSVPEIFEQSNPKPVVHLVVTGHVDSGKSTMLGRIMFELGEINSRSMQKLHNEAANSGKGSFSYAWLLDTTEEERARGVTMDVASTTFESDKKIYEIGDAPGHRDFISGMIAGASSADFAVLVVDSSQNNFERGFLENGQTREHAYLLRALGISEIVVSVNKLDLMSWSEDRFQEIKNIVSDFLIKMVGFKTSNVHFVPISAISGTNLIQKDSSDLYKWYKGPTLLSALDQLVPPEKPYRKPLRLSIDDVYRSPRSVTVTGRVEAGNVQVNQVLYDVSSQEDAYVKNVIRNSDPSSTWAVAGDTVTLQLADIEVNQLRPGDILSNYENPVRRVRSFVAEIQTFDIHGPILSGSTLVLHLGRTVTSVSLAIVTVNNKRSRHIASRKRALVRISFLDGLFPLCLAEECPALGRFILRRSGDTVAAGIVKELC [K531A]
decreasing interaction | MSRHRDVKNLDLDDYELDEEPGEEELTEEQEEEFRSAVATVRETLLGVPISEKEIADTVWYYYFDVEKSVNYLLQKASSKAGAKEKQNTDSQKEKKQNKSKEALADAKDPLDESSNGIKNLSLNKNDEPAFQTNGEVKMKNSSESDNQPEKKKIKKQNPTDLVSVPEIFEQSNPKPVVHLVVTGHVDSGKSTMLGRIMFELGEINSRSMQKLHNEAANSGKGSFSYAWLLDTTEEERARGVTMDVASTTFESDKKIYEIGDAPGHRDFISGMIAGASSADFAVLVVDSSQNNFERGFLENGQTREHAYLLRALGISEIVVSVNKLDLMSWSEDRFQEIKNIVSDFLIKMVGFKTSNVHFVPISAISGTNLIQKDSSDLYKWYKGPTLLSALDQLVPPEKPYRKPLRLSIDDVYRSPRSVTVTGRVEAGNVQVNQVLYDVSSQEDAYVKNVIRNSDPSSTWAVAGDTVTLQLADIEVNQLRPGDILSNYENPVRRVRSFVAEIQTFDIHGPILSGSTLVLHLGRTVTSVSLKIVTVNNKRSRHIASRKRALVRISFLAGLFPLCLAEECPALGRFILRRSGDTVAAGIVKELC [D557A]

Continued, variant first:

Variant | effect of a mutation on the interaction
MSRHRDVKNLDLDDYELDEEPGEEELTEEQEEEFRSAVATVRETLLGVPISEKEIADTVWYYYFDVEKSVNYLLQKASSKAGAKEKQNTDSQKEKKQNKSKEALADAKDPLDESSNGIKNLSLNKNDEPAFQTNGEVKMKNSSESDNQPEKKKIKKQNPTDLVSVPEIFEQSNPKPVVHLVVTGHVDSGKSTMLGRIMFELGEINSRSMQKLHNEAANSGKGSFSYAWLLDTTEEERARGVTMDVASTTFESDKKIYEIGDAPGHRDFISGMIAGASSADFAVLVVDSSQNNFERGFLENGQTREHAYLLRALGISEIVVSVNKLDLMSWSEDRFQEIKNIVSDFLIKMVGFKTSNVHFVPISAISGTNLIQKDSSDLYKWYKGPTLLSALDQLVPPEKPYRKPLRLSIDDVYRSPRSVTVTGRVEAGNVQVNQVLYDVSSQEDAYVKNVIRNSDPSSTWAVAGDTVTLQLADIEVNQLRPGDILSNYENPVRRVRSFVAEIQTFDIHGPILSGSTLVLHLGATVTSVSLKIVTVNNKRSRHIASRKRALVRISFLDGLFPLCLAEECPALGRFILRRSGDTVAAGIVKELC [R523A] | decreasing interaction
MSRHRDVKNLDLDDYELDEEPGEEELTEEQEEEFRSAVATVRETLLGVPISEKEIADTVWYYYFDVEKSVNYLLQKASSKAGAKEKQNTDSQKEKKQNKSKEALADAKDPLDESSNGIKNLSLNKNDEPAFQTNGEVKMKNSSESDNQPEKKKIKKQNPTDLVSVPEIFEQSNPKPVVHLVVTGHVDSGKSTMLGRIMFELGEINSRSMQKLHNEAANSGKGSFSYAWLLDTTEEERARGVTMDVASTTFESDKKIYEIGDAPGHRDFISGMIAGASSADFAVLVVDSSQNNFERGFLENGQTREHAYLLRALGISEIVVSVNKLDLMSWSEDRFQEIKNIVSDFLIKMVGFKTSNVHFVPISAISGTNLIQKDSSDLYKWYKGPTLLSALDQLVPPEKPYRKPLRLSIDAVYRSPRSVTVTGRVEAGNVQVNQVLYDVSSQEDAYVKNVIRNSDPSSTWAVAGDTVTLQLADIEVNQLRPGDILSNYENPVRRVRSFVAEIQTFDIHGPILSGSTLVLHLGRTVTSVSLKIVTVNNKRSRHIASRKRALVRISFLDGLFPLCLAEECPALGRFILRRSGDTVAAGIVKELC [D411A] | decreasing interaction
MSRHRDVKNLDLDDYELDEEPGEEELTEEQEEEFRSAVATVRETLLGVPISEKEIADTVWYYYFDVEKSVNYLLQKASSKAGAKEKQNTDSQKEKKQNKSKEALADAKDPLDESSNGIKNLSLNKNDEPAFQTNGEVKMKNSSESDNQPEKKKIKKQNPTDLVSVPEIFEQSNPKPVVHLVVTGHVDSGKSTMLGRIMFELGEINSRSMQKLHNEAANSGKGSFSYAWLLDTTEEERARGVTMDVASTTFESDKKIYEIGDAPGHRDFISGMIAGASSADFAVLVVDSSQNNFERGFLENGQTREHAYLLRALGISEIVVSVNKLDLMSWSEDRFQEIKNIVSDFLIKMVGFKTSNVHFVPISAISGTNLIQKDSSDLYKWYKGPTLLSALDQLVPPEKPYRKPLRLSIDDVYRSPRSVTVTGRVEAGNVQVNQVLYDVSSQEDAYVKNVIRNSDPSSTWAVAGDTVTLQLADIEVNQLAPGDILSNYENPVRRVRSFVAEIQTFDIHGPILSGSTLVLHLGRTVTSVSLKIVTVNNKRSRHIASRKRALVRISFLDGLFPLCLAEECPALGRFILRRSGDTVAAGIVKELC [R480A] | decreasing interaction
